These results are taken from the supplement of paper PMC9233669.

One series deals with biotinyl-Ile-oxazolone. Put plainly: self-aminoacylation, catalytic enhancement (BIO) (fold over background); higher = more active; k-Seq, kA / k0A0; sequences stand for … in GGGAAUGGAUCCACAUCUACGAAUUC…UUCACUGCAGACUUGACGAAGCUG
In short, it runs like this: (§1)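 Each biotinyl-aminoacyl-oxazolone, at 2–1250 μM, was incubated with mutagenized RNA pools (0.43 μM) carrying a 21-nt variable region. The 50 μL reactions contained HEPES/NaCl/KCl/MgCl2/CaCl2 buffer with 5% acetonitrile at pH 6.9–7.0 and ran for 90 minutes at room temperature. After streptavidin capture, RNA was measured by qPCR in triplicate and by Illumina sequencing, and catalytic enhancement was calculated as median kA over the uncatalyzed rate from a pseudo-first-order fit of per-sequence fraction reacted.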

For the next series, the system named is biotinyl-Val-oxazolone. Nature of the series: self-aminoacylation, catalytic enhancement (BVO) (fold over background); higher = more active; k-Seq, kA / k0A0; sequences stand for … in GGGAAUGGAUCCACAUCUACGAAUUC…UUCACUGCAGACUUGACGAAGCUG
The essentials:
as §1

The test system of a further series is biotinyl-Met-oxazolone. Put plainly: self-aminoacylation, catalytic enhancement (BMO) (fold over background); higher = more active; k-Seq, kA / k0A0; sequences stand for … in GGGAAUGGAUCCACAUCUACGAAUUC…UUCACUGCAGACUUGACGAAGCUG
The essentials:
as §1

The test system of a further series is biotinyl-Phe-oxazolone. Put plainly: self-aminoacylation, catalytic enhancement (BFO) (fold over background); higher = more active; k-Seq, kA / k0A0; sequences stand for … in GGGAAUGGAUCCACAUCUACGAAUUC…UUCACUGCAGACUUGACGAAGCUG
In short, it runs like this: as §1

In a further series the test system is biotinyl-Leu-oxazolone. Put plainly: self-aminoacylation, catalytic enhancement (BLO) (fold over background); higher = more active; k-Seq, kA / k0A0; sequences stand for … in GGGAAUGGAUCCACAUCUACGAAUUC…UUCACUGCAGACUUGACGAAGCUG
The essentials:
as §1

Another series concerns biotinyl-Trp-oxazolone. Nature of the series: self-aminoacylation, catalytic enhancement (BWO) (fold over background); higher = more active; k-Seq, kA / k0A0; sequences stand for … in GGGAAUGGAUCCACAUCUACGAAUUC…UUCACUGCAGACUUGACGAAGCUG
In short, it runs like this:
as §1

Fewer inactive variants are shown than the library holds.

Regarding “CUACUUCAAACACUCGGUCAG [Fam1A.1 aminoacylation ribozyme variant]”, the self-aminoacylation with biotinyl-Ile-oxazolone stood at 0.907; in the series on biotinyl-Val-oxazolone it was 0.958; in the series on biotinyl-Met-oxazolone, 0.878; with biotinyl-Phe-oxazolone, 0.496; in the series with biotinyl-Leu-oxazolone it was 0.833; with biotinyl-Trp-oxazolone, 0.721.

As for “AUUCGCCUAGGUCAUCGGGAG [Fam2.2 aminoacylation ribozyme variant]”, the self-aminoacylation came to 1.29 in the series with biotinyl-Ile-oxazolone; 1.54 in the series on biotinyl-Val-oxazolone; 1.51 in the series with biotinyl-Met-oxazolone; 2.55 in the series on biotinyl-Phe-oxazolone; 1.87 in the series on biotinyl-Leu-oxazolone; 0.98 with biotinyl-Trp-oxazolone.

In the case of “AAGUUUGCGAAUAGUCACAAG [Fam3.1 aminoacylation ribozyme variant]”, the self-aminoacylation in the series on biotinyl-Ile-oxazolone turned out to be 1.17; in the series with biotinyl-Val-oxazolone, 0.962; in the series on biotinyl-Met-oxazolone it was 0.933; in the series on biotinyl-Phe-oxazolone it was 1.66; with biotinyl-Leu-oxazolone it was 0.774; in the series with biotinyl-Trp-oxazolone, 0.863.

Regarding “AUUUCUCUGGUCAUCGAGUGA [Fam2.1 aminoacylation ribozyme variant]”, the self-aminoacylation with biotinyl-Ile-oxazolone stood at 3.1; with biotinyl-Val-oxazolone it was 3.2; with biotinyl-Met-oxazolone, 5.74; in the series on biotinyl-Phe-oxazolone it was 20.5; in the series with biotinyl-Leu-oxazolone, 5.82; with biotinyl-Trp-oxazolone, 7.1.

With “CAGUUUGAUAAUAGUCGCAAG [Fam3.1 aminoacylation ribozyme variant]”, the self-aminoacylation worked out at 1.4 with biotinyl-Ile-oxazolone; 1.54 in the series on biotinyl-Val-oxazolone; 1.32 in the series with biotinyl-Met-oxazolone; 1.89 in the series with biotinyl-Phe-oxazolone; 1.34 with biotinyl-Leu-oxazolone; 1.26 with biotinyl-Trp-oxazolone.

For the sequence “CUACUUCAGACAAUCGGUGUG [Fam1A.1 aminoacylation ribozyme variant]”, the self-aminoacylation was 1.23 with biotinyl-Ile-oxazolone; 1.4 in the series with biotinyl-Val-oxazolone; 1.57 in the series on biotinyl-Met-oxazolone; 3.43 with biotinyl-Phe-oxazolone; 1.5 with biotinyl-Leu-oxazolone; 1.7 in the series on biotinyl-Trp-oxazolone.

Turning to “AUUACCCUGGUAAUUGAGUGA [Fam2.1 aminoacylation ribozyme variant]”, the self-aminoacylation with biotinyl-Ile-oxazolone is 6.96; with biotinyl-Val-oxazolone it was 6.33; in the series on biotinyl-Met-oxazolone it was 16.2; with biotinyl-Phe-oxazolone it was 117; in the series with biotinyl-Leu-oxazolone, 17.1; in the series with biotinyl-Trp-oxazolone, 19.2.

Turning to “CAACACUUCAAGCCAUCGGUC [Fam1B.1 aminoacylation ribozyme variant]”, the self-aminoacylation in the series on biotinyl-Ile-oxazolone is 1.35; in the series on biotinyl-Val-oxazolone, 1.48; in the series with biotinyl-Met-oxazolone, 1.35; with biotinyl-Phe-oxazolone, 1.04; with biotinyl-Leu-oxazolone, 1.74; with biotinyl-Trp-oxazolone, 1.24.

For the sequence “CGACUUCAAACAAUCGGUCAG [Fam1A.1 aminoacylation ribozyme variant]”, the self-aminoacylation was found to be 0.915 in the series on biotinyl-Ile-oxazolone; 0.883 in the series with biotinyl-Val-oxazolone; 0.707 with biotinyl-Met-oxazolone; 8.58 in the series with biotinyl-Phe-oxazolone; 0.772 in the series with biotinyl-Leu-oxazolone; 4.08 in the series on biotinyl-Trp-oxazolone.

With “AUUAACCAAGGUCAUCGGGUG [Fam2.2 aminoacylation ribozyme variant]”, the self-aminoacylation was found to be 3.81 with biotinyl-Ile-oxazolone; 4.19 in the series on biotinyl-Val-oxazolone; 7.25 in the series with biotinyl-Met-oxazolone; 43.2 with biotinyl-Phe-oxazolone; 9.4 with biotinyl-Leu-oxazolone; 6.8 in the series with biotinyl-Trp-oxazolone.

As to “AUUAACCUAGGUCAUUGGGUG [Fam2.2 aminoacylation ribozyme variant]”, the self-aminoacylation in the series with biotinyl-Ile-oxazolone was 1.93; with biotinyl-Val-oxazolone, 2.28; in the series on biotinyl-Met-oxazolone, 2.88; in the series with biotinyl-Phe-oxazolone it was 15.2; in the series with biotinyl-Leu-oxazolone, 3.23; in the series with biotinyl-Trp-oxazolone it was 2.85.

Take “AUUCACCUAGCUAAUCGGGUG [Fam2.2 aminoacylation ribozyme variant]”: the self-aminoacylation in the series on biotinyl-Ile-oxazolone amounted to 1.6; in the series with biotinyl-Val-oxazolone, 1.62; in the series on biotinyl-Met-oxazolone it was 1.93; in the series on biotinyl-Phe-oxazolone, 4.49; with biotinyl-Leu-oxazolone, 2.05; in the series on biotinyl-Trp-oxazolone, 1.85.

For the sequence “AUUACCCUGGCCAUCGAGAGA [Fam2.1 aminoacylation ribozyme variant]”, the self-aminoacylation with biotinyl-Ile-oxazolone worked out at 0.69; with biotinyl-Val-oxazolone, 1.01; with biotinyl-Met-oxazolone it was 1.02; with biotinyl-Phe-oxazolone, 0.439; in the series with biotinyl-Leu-oxazolone, 0.919; with biotinyl-Trp-oxazolone it was 0.803.

For “AAGUUUGCUAAGAGACGCAAG [Fam3.1 aminoacylation ribozyme variant]”, the self-aminoacylation with biotinyl-Ile-oxazolone was determined as 0.661; in the series on biotinyl-Val-oxazolone, 0.76; in the series on biotinyl-Met-oxazolone, 0.544; in the series with biotinyl-Phe-oxazolone, 1.28; in the series with biotinyl-Leu-oxazolone, 0.967; in the series on biotinyl-Trp-oxazolone it was 0.74.

With “CUACUUCAAAGAAUCAGUCUG [Fam1A.1 aminoacylation ribozyme variant]”, the self-aminoacylation with biotinyl-Ile-oxazolone turned out to be 0.759; in the series with biotinyl-Val-oxazolone it was 0.803; in the series on biotinyl-Met-oxazolone, 0.677; in the series with biotinyl-Phe-oxazolone, 3.34; in the series on biotinyl-Leu-oxazolone, 0.68; in the series with biotinyl-Trp-oxazolone, 1.7.

Consider “UUUACCCUGCUCAUCGAGUGA [Fam2.1 aminoacylation ribozyme variant]”, for which the self-aminoacylation was determined as 1.28 in the series on biotinyl-Ile-oxazolone; 1.54 in the series with biotinyl-Val-oxazolone; 2.03 in the series on biotinyl-Met-oxazolone; 8.11 in the series with biotinyl-Phe-oxazolone; 2.15 with biotinyl-Leu-oxazolone; 3.13 in the series with biotinyl-Trp-oxazolone.

Consider “CAGCUUGCUAAUAGUCGCAAG [Fam3.1 aminoacylation ribozyme variant]”, for which the self-aminoacylation worked out at 1.82 in the series with biotinyl-Ile-oxazolone; 1.86 in the series on biotinyl-Val-oxazolone; 1.72 with biotinyl-Met-oxazolone; 2.54 in the series with biotinyl-Phe-oxazolone; 1.89 in the series with biotinyl-Leu-oxazolone; 1.72 in the series with biotinyl-Trp-oxazolone.

For the sequence “CUAAUUCAAACAAUGGGUCUG [Fam1A.1 aminoacylation ribozyme variant]”, the self-aminoacylation is 0.742 in the series with biotinyl-Ile-oxazolone; 0.739 with biotinyl-Val-oxazolone; 0.777 in the series with biotinyl-Met-oxazolone; 0.481 in the series on biotinyl-Phe-oxazolone; 0.643 in the series with biotinyl-Leu-oxazolone; 0.468 with biotinyl-Trp-oxazolone.

With “AUUACUCUGGUCACCGAGUGA [Fam2.1 aminoacylation ribozyme variant]”, the self-aminoacylation in the series with biotinyl-Ile-oxazolone is 3.28; in the series on biotinyl-Val-oxazolone it was 3.27; in the series on biotinyl-Met-oxazolone it was 7.28; in the series on biotinyl-Phe-oxazolone, 44.4; with biotinyl-Leu-oxazolone, 8.45; in the series with biotinyl-Trp-oxazolone it was 9.08.

With “AUUCACCUAGGUCAACGCGUG [Fam2.2 aminoacylation ribozyme variant]”, the self-aminoacylation stood at 3.59 with biotinyl-Ile-oxazolone; 3.6 in the series on biotinyl-Val-oxazolone; 5.53 with biotinyl-Met-oxazolone; 43.4 in the series on biotinyl-Phe-oxazolone; 7.6 with biotinyl-Leu-oxazolone; 5.44 with biotinyl-Trp-oxazolone.

For “CCACACUUUAAGCAAUCGUUC [Fam1B.1 aminoacylation ribozyme variant]”, the self-aminoacylation is 0.669 in the series with biotinyl-Ile-oxazolone; 0.849 with biotinyl-Val-oxazolone; 0.566 in the series with biotinyl-Met-oxazolone; 0.911 with biotinyl-Phe-oxazolone; 0.543 with biotinyl-Leu-oxazolone; 0.575 in the series on biotinyl-Trp-oxazolone.

As to “AUUACCCUGGUCAUCGUGUGA [Fam2.1 aminoacylation ribozyme variant]”, the self-aminoacylation in the series with biotinyl-Ile-oxazolone came to 1.58; with biotinyl-Val-oxazolone, 1.85; in the series on biotinyl-Met-oxazolone, 3.01; in the series on biotinyl-Phe-oxazolone, 17.2; in the series on biotinyl-Leu-oxazolone, 3.08; with biotinyl-Trp-oxazolone, 3.41.

Take “AUUCAGCUAGGUCAUAGGGUG [Fam2.2 aminoacylation ribozyme variant]”: the self-aminoacylation is 0.975 with biotinyl-Ile-oxazolone; 1.23 in the series on biotinyl-Val-oxazolone; 1.09 in the series on biotinyl-Met-oxazolone; 1.15 with biotinyl-Phe-oxazolone; 1.24 with biotinyl-Leu-oxazolone; 1.17 with biotinyl-Trp-oxazolone.

Consider “CUACUUCUAACAAUCGGUCUC [Fam1A.1 aminoacylation ribozyme variant]”, for which the self-aminoacylation was 0.686 in the series with biotinyl-Ile-oxazolone; 0.664 with biotinyl-Val-oxazolone; 0.634 in the series with biotinyl-Met-oxazolone; 0.799 in the series with biotinyl-Phe-oxazolone; 0.572 in the series on biotinyl-Leu-oxazolone; 0.571 in the series with biotinyl-Trp-oxazolone.

“AAGUUUGAUAUUAGUCGCAAG [Fam3.1 aminoacylation ribozyme variant]”: the self-aminoacylation with biotinyl-Ile-oxazolone amounted to 1.45; in the series on biotinyl-Val-oxazolone, 1.4; in the series with biotinyl-Met-oxazolone it was 1.24; in the series with biotinyl-Phe-oxazolone, 1.72; in the series with biotinyl-Leu-oxazolone, 1.54; in the series on biotinyl-Trp-oxazolone it was 1.31.
